Measured values taken from patent US20120302506A1.

Target: Human uPA (Chemicon) (human) (UniProt P00749)
Experiment: cell-based or functional assay

Sequence of Glutathione S-transferase (GST)-tagged maspin (GST-maspin), bacterial recombinant (P08515 whole entry): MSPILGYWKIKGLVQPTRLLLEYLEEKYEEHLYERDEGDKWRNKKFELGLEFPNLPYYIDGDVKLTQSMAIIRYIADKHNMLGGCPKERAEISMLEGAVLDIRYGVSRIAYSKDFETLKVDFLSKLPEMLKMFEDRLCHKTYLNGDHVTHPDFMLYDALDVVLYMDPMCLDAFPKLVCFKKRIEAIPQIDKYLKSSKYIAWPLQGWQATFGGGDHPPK

maspin-mediated adhesion of uPA-stripped MCF0A cells resupplied with exogenous uPA (800 nM) (% of GST control): 154
Substance: Glutathione S-transferase (GST)-tagged maspin (GST-maspin), bacterial recombinant (from UniProt P08515 1-218)
